Assay results from the DeepSol protein solubility set.

assay: soluble on expression in E. coli; label from the status in PepcDB or PDB records

Soluble on expression in E. coli, not soluble:
MGSDKIHHHHHHMPRKTTSLCRRILLENYTTRGEKMITNLSDRVFVIGTGTSANSVLVCGKKFCVLFDSTLFPEKARKIKEFAAEILGKEIAVVFNTHYHPDHTFGNEVFDRIISHSLTRKSLEEMDEEYIRKIGVEVSLKFPDETFSERENYRFGDIVVEAVHLGGHTPDSSIFVLKNEKIVICGDLLTTGIHAEIVTDSDLFGWIEALSEIEKIRADYFVPGHGKVGTIEDVRNMKDYISKVLRFREGSVKHSELLEDPNFINREHPELLTWGLENIIR
MGSDKIHHHHHHMPVIKFSYGDSMSTPLDSDLLRTFLAVADTGNLTRAADTVRRTQSAVSMQIRKLEELIGSALFERHSRGVILTDDGRRLADNARRIVSLLDDTAAAMRSPALEGSVRIGISEEYVNSTLPKALGAFAAIHPGVEVTVRQETSMANSAALAAGELDIAVVFEPGGRSRNEVLMVNPTVWATCDQHGAHERRPVPIATYTYAEGGWCDELARRSLQSRGIESRIAYVSRTSGGLIAALISGLAIAPLSRTAIPAGCRELTEEDGFGIIDMTNVVLRTRRGNRSPTVDAMADAIRRAFRAPAEKEKEEVRSTTTDG
MGSDKIHHHHHHMPVKLAQALANPLFPALDSALRSGRHIGLDELDNHAFLMDFQEYLEEFYARYNVELIRAPEGFFYLRPRSTTLIPRSVLSELDMMVGKILCYLYLSPERLANEGIFTQQELYDELLTLADEAKLLKLVNNRSTGSDVDRQKLQEKVRSSLNRLRRLGMVWFMGHDSSKFRITESVFRFGADVRAGDDPREAQRRLIRDGEAMPIENHLQLNDETEENQPDSGEEE
MGSDKIHHHHHHMPYDSTDREIMRFLQGDIPLESRPYKNLAERLELSEEEIVLRVKKLREKGFLRRMGAVLRHRQAGFAVNAMVAWKLENEEQADRAGKIMAGYKEISHCYIREVPPDFDYSIFSMIHVKNEERLAEIIEEISLQTGIGKYIIIRSSRELKKESMQYF
MGSDKIHHHHHHMPYSSKEEAAQGWADIIARARSCSAGAARKAVAQLGRRDLFFLLTRLLGREEMFNDWCFARCAEVQRQPDGMLDLWAREHYKSTIITFGQSIRDILNDPEITIGIFSHSRPVAKGFLAQIKHEFEQNHALKTLYPDVLYSDPKRQSPRWSLDGGLVVRRSTNPKEATVEAWGLVDGQPTGKHFRLLVYDDVVTRESVTSPEMIAKVTECWALSLNLGARGGACRTIGTRYHYNDTYKTMMDRKAAEPRIHAATADGTPDGPSVFLPQNELADKRRRMGPFVFGCQMLQNPVADRMQGFREEWLRWWQPGAASWQAMNRYILVDPAASRKEQADWTVMLVVGLGADGNYYLIDGIRDRLNLTGRAGALFRLHRTYRPLAVGYEQYGMQADIEYMHTEMDRRNHRFDITPLAGRLAKADRIRRLVPLFEGGRVYLPRVCPFTDSEGRQRDLSRELVTEEYLAFPVCGHDDMLDCLARITDSALGAHPAVDSNAQYESTANMEYPLWT
MGSDKIHHHHHHMQDSMLSGLFGALTTEHRLNNIANNLANVNTNGYKRDVLAFKDTMALFAHDEIMEPMANVRSKKLFPEPLHVARPRIAVARTDFSQGSFHYTSDPLDLAISGNGFFKVRTPEGEFYTRNGHFRQTSDGQLVTMQGWPVLSEGGDINLPQGKNLQVASDGRIAVDGVDVGQLQVVTVSDLEGLEKLGGNLYRLREGSTAGEVPVGPDVIVSQGYIETSNVEVVNEMVNMIETQRQFEAYQKVMQTSDTVDRDAITKIGRGR
MGSDKIHHHHHHMQENRYNTCDRFLGGLEKDFIITEQIEDSPLTSEPSFLDYGIIAVCNRGSAIIHLLDNKHVWNKNELIFLFPRQLCSMRNVSEDFSAKFIIIPHVLHGDVLSSLRHFDPGFHFFVKDHFYYNIEDNNGIERFQSFCKLIENELERYRGNGLLRERIICYLGIFYMDVYDYYVKVRKKIPFRTSLRKEQLIYDFCSLVAENFKNHKNVGFYADKLNITTTYLSAIMNERCGISAKEFLSIYIVLEVKSLLRDSRLNIQEIAILTNFPSQSTLNRFFRQRTGMTLSQYRKHIFST
MGSDKIHHHHHHMQERGLVGLGLRREMLSEFCQQLPSAIDFLEVAPENWMTLGGKYGKQFRQLTEQHTFFCHGLSLSIGSPEPLDLEFVRRIKAFMDLHQIDVYSEHLSYCSGAGHLYDLMPIPFTEAAVKHVARRVKQVEDILYRPLILENVSFYAAPSAQMTELAFLTAVLEEADCKLLLDVNNIYVNSINHQYDALAFLKAMPTERIAYLHIAGHFKESEELLIDTHGSDINAPVWALLDSCYAEHGVLPTLLERDFNLPATAHLLDEINQIHAYQARAKSNLDKRIA
MGSDKIHHHHHHMQFERISTEQKKLSLIQTFLHQNALKLDEQIEYFVVGYNDNEQIVVCGGLAGNIIKCVAIDESLRGSGVALQLITELVDLAYTLKRPHLFIYTKPEYATLFKSCGFYIISDANPYVVLLENSATRLQKQCSLWEKMRVDGNRIGSIVMNANPFTLGHRYLIEQALQQCDHLHLFIVGEDASQFSYTERFEMIQQGIFDLSNITLHSGSDYIISRATFPNYFLKDQLITDESYFEIDLKLFRLHIAQALGITHRFVGTELNCPVTAEYNRQMHYWLMDAEMNAPKINVIEIPRKTASNHIISASTVRKHLAEKNWAQLAEFVPMTTLNYLQKCGRF
MGSDKIHHHHHHMQHTIQHLYKTHGDDGLLYAWFLSMHTRVDIILCCQKSENELMLVVNSIYDTLRQLERIANYYDPSSELSQVNQRASTAPVMISQSLYRMISLCTEYHKKTLGCFDVTIHSDNYNQDTIHSIHLYPEAQSVFFQQAGTTINLSGFLKGYALDKIREILKVHIIANALINMGNSSVLALGNHPVGTGWKVSFDDQASTTKNHKTQSILLNNECLTTSGNNSDDRKHIISPSSGKPLEGVRQVTVVTDDGTTGEILSTSLFVANQKQRELIMSEFLPKRVIDLELCQMV
MGSDKIHHHHHHMQIEMTGITKAFGPVPVLKGVDFTLATGEIHALMGENGAGKSTLMKILTGVHKADQGTILVDGVEQQYKNPKLAEEAGIAFIHQELNILPDLTVTENLFLGRELKSRFGVLKQAEMKRLAERELAELNVFMDVNQLARTLSVGQQQMIEIAKALMTDAKVIIMDEPTAALTEREIRALFSVATALREQGVSIVYISHRMEEIFELCDRITVLRDGVSVSTHRIADTSFEQIVREMVGREMGERYPERQVTLGQTVLEVTGATGKRFEDVSFSVRAGEIVGFSGLMGAGRTEVMRGLFGIDRMKAGTISLNGKTIKIKSPHDAIKQGLGFLTEDRKGEGLFLDFSLRENISLPTIRSLSKSGVISDQSERQFAEGYLKSLSVRHSSMDQPAKSLSGGNQQKVVLAKWLGTKPDVLILDEPTRGVDVGAKKEIYMIMDELAATGVAIIMISSDLPEILGMSDRVYVMREGQMSGMLNQEEATQESIMTLATGGQ
MGSDKIHHHHHHMQILTVQMNIAGEWRDVAVVGFYAPEKGTGGPCVLNYDIEHVTSYFHQFAQTAVSVSLPVDNIPLRSPHWHRFLEDIMPAGSSRDYWVKRLGLQDMPNLERDFQLLKYGTIAPIGNLRIKESVPEKAKKSLPVTFSIADVSELQIDFIEYAQSRGAAAGGASGAGGAAPKLLVRLNEQQGVWIDTFQDDPRNLDQPYLVKFPRGKTTLDSDILRAEYHFYHELTQLGFETISVESMKLIEVERGPSLWLPRFDYGVEAGAMVSYGMESVYAILGEPTAKPLLHADVIRRLLAEFNKKENYGNTRTPLDVEAGLEGKSGIEAFVVEWVRRDLLNIAFGNSDNHGRNTSFIKHGNRVQLAPIYDFAPMKADYEMITRTFTWGEGMELGGVYNFPAIAEHLSDLLSPNDLMSALNETAVRLLGLELRLRQRGVPESILAHSGIGFATLEARMQQWGLL
MGSDKIHHHHHHMQKPHLLITSAGRRAKLVEYFVKEFKTGRVSTADCSPLASALYMADQHYIVPKIDEVEYIDHLLTLCQDEGVTALLTLIDPELGLLAQATERFQAIGVTVIVSPYAACELCFDKYTMYEYCLRQGIAHARTYATMASFEEALAAGEVQLPVFVKPRNGSASIEVRRVETVEEVEQLFSKNTDLIVQELLVGQELGVDAYVDLISGKVTSIFIKEKLTMRAGETDKSRSVLRDDVFELVEHVLDGSGLVGPLDFDLFDVAGTLYLSEINPRFGGGYPHAYECGVNFPAQLYRNLMHEINVPQIGQYLDDIYMLKHDTVTLISAAELQKIKR
MGSDKIHHHHHHMQKSRPEQDVHEDIKILIQTHFGESGQGIHIEVKGDKVSLWGTVDSLAEKDFIGQRIGRIDGVKELDNSLTVANDGKITDKDIEKQVVERFAQSNFEEIMHLGCRASKGIVTLLGHLETQSSERLAKRIASQVRGVKEVRSEIDFLEKAVDDATLVNRVENALVASPWVNAHEIKTSARNGLITLTGMVNTQEEMEWAVDTAYQVPGVKAVVSEIFSRHRSQGEDLYMTEQLVRKLGQHGMTSQLVRAFVQDGIAYMTGEVYSDEDRRWAESMGQHVEGIKSINSSIKVAAHSSK
MGSDKIHHHHHHMQLVFDFPVNPKYSLDNFVICSGNETAYRFVRRLTDDEGAENLLYLHGPSGSGKTHLLMAIGAHFSARAGLSSVPCISFKDVDEVYGGEYPAEAVSKLAERFRNAPALLVDDLHLIPDQQAVRVELWQLFNDFYQAGRPIAITGLYPPKELPTIDDHLISRLLWGLVARVDISDDDSRRLIMKKLADDRQIVLPADVIDYLLLHVRRDVPSLIEALDAISRYALAAKRKVSVRLAREALAFHS
MGSDKIHHHHHHMQMAVRWQLSGSYFENCSCDVVCPCLLSTKAQLTSRPTKGVCDVGLVFHIDTGNYGDVRLDGLSVALVAHTPGPMADGNWTAAAYIDERADDRQTEALGAIFTGAAGGPMAVLAPMIGTNLGAKKVPIDYRIDGKKRSAAIAGVMQMAVEPLPTMREDGQMWAATGHPVNPDWLGMAMGAQGSTFSDHGMSWDNSGQNGHYAPINWSGE
MGSDKIHHHHHHMQPTYLPWMGYFDLIDIADKFVFLDNVQLERSGWQVRNRIRSSQGELMLRVAIATPKRFDETLIHQTQFVTGHPWRKKHLKSIQMNYQKAPYFAQVYPLLESLYQKDETSLSQFNISVINALCTFMGINTPRMLASELVDIEGIKDARLTSICKHLDADQYLSPLGAMAYIEQESSGGDLGENGIDVFYHQFVHPQYTQVYDGFISHLSIIDALFNLGPQNTVTLIRQFRQAPINYTSLPR
MGSDKIHHHHHHMQQPLAYRMRPKTLKDVVGQQQLVGPGKIIARMVKAKRLSSMILYGPPGTGKTSIASAIAGSTKYAFRMLNAATDSKKQLQIVAEEAKMSGTVILLLDEIHRLDKTKQDFLLPHLESGRIILIGATTENPYISINPAIRSRTQIFQVFPLTDDDIQHAVERALADEKNGLGSYHVDLAPAAMHHLCTATNGDLRSALNGLELAVLSSSPADDGTIAISQQTIEECLQKKALSADKDGDAHYDVISAFQKSIRGSDVNAALHYLARLVEAGDLKSIMRRLMVIAYEDIGLANPAACAHTVAAVQAADQLGFPEARIPLADAVIELALSPKSNSGISAIDAALTTVRDGHFGDIPADIKDAHYQGAAKLGHGVGYDFPHDHPGDWVAQQYLPDAIKSAKYYEPKTNGRYETALAQQYEKLLKANERNR
MGSDKIHHHHHHMQRARCYLLGERAVVLELEPPMSLESQQRIWGLAERLNHHEEVLEVIPGMNNLTVLLAHPQQVALDAIERLQRWWEESESLVFDPRDIDIPVIYGGEAGPDLAEVAAHSGLTVSQVVEAHAAAQYVVYFLGFQPGFAYLGGLNEKLHMPRRAEPRLRVPEGSVGIGGAQTGIYPLATPGGWQLIGRTSLTLFNPQTMPPTLLRPGDNVRFLPQKEGVC
